Changes are numbered by the printed parent chain.
B1: anti-IL1-RAP antibody clone 54.9D7 (antibody, V domains shown)
VH: HVQLQQSGPELVRPGASVKLSCKASGYIFITYWMNWVKQRPGQGLEWVGQIFPASGTTYYNELFEGKATLTVDTSSNTAYMHLTSLTSEDSAVYYCARTDFYRYDGGYALDYWGQGTSLTVSS
VL: DIVLTQSPISLAVFLGQRATISCRASQSVSTSGYSSMHWYQQKAGQPPKLLIKYASDLESGVPVRFSGSGSGTDFILNIHPVEVEDIATYYCHHSWGIPMYTFGGGTKLEIKR
notes: Mouse monoclonal antibody from a hybridoma
B2: humanized clone of 54.9D7 hH2L3 (antibody, V domains shown)
VH: QVQLVQSGAEVKKPGASVKVSCKASGYIFITYWMNWVRQAPGQGLEWVGQIFPASGTTYYAQKFQGRVTMTVDTSTSTVYMELSSLRSEDTAVYYCARTDFYRYDGGYALDYWGQGTLVTVSS
VL: DIQLTQSPSSLSASVGDRATITCRASQSVSTSGYSSMHWYQQKPGKAPKLLIKYASDLESGVPSRFSGSGSGTDFTLTISSVQPEDFATYYCHHSWGIPMYTFGQGTKLEIKR
notes: Humanized; also called 54.9D7 H2L3
B3: humanized clone of 54.9D7 hH1L3 (antibody, V domains shown)
VH: B2 VH with V48M, V72R
VL: B2 VL
notes: Humanized; also called 54.9D7 H1L3
B4: humanized clone of 54.9D7 hH3L3 (antibody, V domains shown)
VH: B2 VH with V20L, V68A, M70L, V79A, V119L
VL: B2 VL
notes: Humanized; also called 54.9D7 H3L3
B5: h54.9D7 HC2 / Chi54.9D7 LC#1 (antibody, V domains shown)
VH: B2 VH
VL: B1 VL
notes: also called humanized 54.9D7 HC2 with the chimeric light chain
B6: Chi54.9D7 HC#1 / h54.9D7 LC3 (antibody, V domains shown)
VH: B1 VH
VL: B2 VL
notes: also called chimeric 54.9D7 heavy chain with humanized LC3
B7: h54.9D7 HC1 / Chi54.9D7 LC#1 (antibody, V domains shown)
VH: B2 VH with V48M, V72R
VL: B1 VL
notes: also called humanized 54.9D7 HC1 with the chimeric light chain
B8: h54.9D7 HC3 / Chi54.9D7 LC#1 (antibody, V domains shown)
VH: B2 VH with V20L, V68A, M70L, V79A, V119L
VL: B1 VL
notes: also called humanized 54.9D7 HC3 with the chimeric light chain
B9: anti-IL1-RAP antibody clone 42.1D3 (antibody, V domains shown)
VH: QIQLVQSGPELKKPGETVNISCKASGYTFTDFSMHWVKQAPGKGLQWMGWINTETGEPTYADDFEARFAFSLATSANTAYLKINNLKNEDTATYFCARFFLHFDYWGQGTTLTVSS
VL: DIVLTQSPATLSVTPGDSVSLSCRASQSINNDLHWYQQKSHESPRLLIKYASQSISGIPSRFSGSGSGTDFTLRINSVETEDFRMYFCQQSNNWPLTFGAGTKLEVK
notes: Mouse monoclonal antibody
B10: anti-IL1-RAP antibody clone 54.8H8 (antibody, V domains shown)
VH: EVQLVESGGGLVKPGGSLKLSCAASGFSFSSYGMSWVRQSPEKRLEWVAEITSGGSHTYYPDTVTGRFTISRDNAKNTLYLEMSSLRSEDTAMYYCSRSYGNYVMDYWGQGTSVTVSS
VL: QIVLTQSPAIMSASPGEKVTMTCSASSSVIYIYWFQQKPGSSPRLLIYDTSNLASGVPLRFSGSGSGTSYSLTISRMETEDVSTYYCQQWNSYPPTFGGGTKLEIK
notes: Mouse monoclonal antibody
B11: H54.9D7 HC1 / H54.9D7 LC1 (antibody, V domains shown)
VH: B2 VH with V48M, V72R
VL: B2 VL with L4M, A19V, K53Y, V82L
B12: h54.9D7 HC2 / h54.9D7 LC2 (antibody, V domains shown)
VH: B2 VH
VL: B2 VL with K53Y
B13: Chi54.9D7 HC#1 / h54.9D7 LC1 (antibody, V domains shown)
VH: B1 VH
VL: B2 VL with L4M, A19V, K53Y, V82L
B14: H54.9D7 HC3 / H54.9D7 LC1 (antibody, V domains shown)
VH: B2 VH with V20L, V68A, M70L, V79A, V119L
VL: B2 VL with L4M, A19V, K53Y, V82L
B15: Chi54.9D7 HC#1 / h54.9D7 LC2 (antibody, V domains shown)
VH: B1 VH
VL: B2 VL with K53Y
B16: h54.9D7 HC2 / h54.9D7 LC1 (antibody, V domains shown)
VH: B2 VH
VL: B2 VL with L4M, A19V, K53Y, V82L
B17: h54.9D7 HC3 / h54.9D7 LC2 (antibody, V domains shown)
VH: B2 VH with V20L, V68A, M70L, V79A, V119L
VL: B2 VL with K53Y
B18: h54.9D7 HC1 / h54.9D7 LC2 (antibody, V domains shown)
VH: B2 VH with V48M, V72R
VL: B2 VL with K53Y

Each molecule was assayed against T1, human interleukin 1 receptor accessory protein, membrane-bound form on cells (human, UniProt Q9NPH3 21-570) (assay: cell-based or functional assay).
T1 sequence: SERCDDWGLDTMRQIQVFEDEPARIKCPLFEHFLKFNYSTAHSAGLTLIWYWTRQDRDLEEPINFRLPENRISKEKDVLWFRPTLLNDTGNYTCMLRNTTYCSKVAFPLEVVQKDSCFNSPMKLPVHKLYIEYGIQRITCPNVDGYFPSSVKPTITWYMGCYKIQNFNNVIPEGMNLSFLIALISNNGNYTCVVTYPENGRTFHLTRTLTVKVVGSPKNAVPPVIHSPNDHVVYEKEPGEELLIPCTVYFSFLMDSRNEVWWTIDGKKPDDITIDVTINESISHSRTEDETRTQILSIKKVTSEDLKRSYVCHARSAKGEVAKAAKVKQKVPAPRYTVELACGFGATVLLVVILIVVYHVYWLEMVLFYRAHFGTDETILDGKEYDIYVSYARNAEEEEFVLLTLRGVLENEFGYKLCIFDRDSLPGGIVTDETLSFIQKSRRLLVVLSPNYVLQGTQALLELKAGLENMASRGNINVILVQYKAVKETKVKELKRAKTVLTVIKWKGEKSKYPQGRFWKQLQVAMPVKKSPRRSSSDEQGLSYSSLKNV
For B1, the “IC50 of inhibition of IL-1β-induced NF-κB signaling, HEK-Blue IL-1β cells” value (“IC50 of inhibition … HEK-Blue IL-1β cells” for short) was 0.0323 µg/mL.

What follows are molecules tested against human interleukin 1 receptor accessory protein, membrane-bound form on cells (human) (UniProt Q9NPH3) (assay: flow cytometry on primary AML sample 13-AML-02 PB, antibody at 2 ug/mL per paragraph 390).
mIgG (antibody) was tested, and the % of cells in the upper right quadrant (CD34 APC high, stain positive) was 1.57%.

What follows are molecules tested against T2, IL1-RAP (antigen of the kinetic measurements of Tables 5A and 5B) (human, UniProt Q9NPH3 21-359, limits assumed) (assay: kinetics, Table 5A; method and antigen form not stated).
T2 sequence: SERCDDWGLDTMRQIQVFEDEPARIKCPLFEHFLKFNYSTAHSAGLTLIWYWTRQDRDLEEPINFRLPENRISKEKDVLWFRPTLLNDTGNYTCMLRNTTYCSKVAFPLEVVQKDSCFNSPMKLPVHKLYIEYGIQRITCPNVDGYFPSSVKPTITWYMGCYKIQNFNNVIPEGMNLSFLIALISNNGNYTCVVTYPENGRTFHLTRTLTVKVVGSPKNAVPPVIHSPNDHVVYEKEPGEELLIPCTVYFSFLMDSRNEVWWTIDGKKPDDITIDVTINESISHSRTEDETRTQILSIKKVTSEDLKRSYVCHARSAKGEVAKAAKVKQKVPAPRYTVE
In the case of B2, the Kd is reported as < 1 pM, the koff is reported as < 1e-07 s⁻¹ and the kon is reported as 141000 M⁻¹ s⁻¹.
For B3, the Kd was 556 pM, the koff was 7.57e-05 s⁻¹ and the kon was 136000 M⁻¹ s⁻¹.
B4 was tested, and the Kd was < 1 pM, the koff was < 1e-07 s⁻¹ and the kon was 177000 M⁻¹ s⁻¹.

These molecules were tested against T1, human interleukin 1 receptor accessory … (assay: FACS on EOL-1 cells, FITC; antibody concentration not given).
Molecule B5 has an MFI of 75.1.
Molecule B2 has an MFI of 124.
Work on B6 yielded an MFI of 121.
Molecule B3 has an MFI of 100.
With B4 the MFI was 94.3.
B7 was tested, and the MFI was 21.3.
B8 showed an MFI of 20.

These molecules were tested against T3, recombinant mouse IL1-RAP (mouse, UniProt Q61730 21-359, limits assumed) (assay: FACS (GeoMean), bar series mIL1RAP).
T3 sequence (looked up): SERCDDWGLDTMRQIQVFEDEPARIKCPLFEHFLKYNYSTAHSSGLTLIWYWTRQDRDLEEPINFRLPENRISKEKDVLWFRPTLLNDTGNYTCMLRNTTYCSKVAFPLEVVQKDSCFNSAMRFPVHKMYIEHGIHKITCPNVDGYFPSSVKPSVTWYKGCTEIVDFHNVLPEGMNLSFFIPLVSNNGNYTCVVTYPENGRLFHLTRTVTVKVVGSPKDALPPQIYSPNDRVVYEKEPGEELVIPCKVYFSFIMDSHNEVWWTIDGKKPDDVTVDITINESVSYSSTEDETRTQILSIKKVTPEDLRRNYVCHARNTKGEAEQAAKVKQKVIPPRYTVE
B9: no binding (tested: not given).
B1: no binding (tested: not given).
B10: no binding (tested: not given).

Each molecule was assayed against human interleukin 1 receptor accessory protein, membrane-bound form on cells (human) (UniProt Q9NPH3) (assay: FACS on EOL-1 cells, FITC; antibody concentration not given).
B11 showed an MFI of 4.9.
For B12, the MFI was 5.69.
With B13 the MFI was 7.96.
B14 was tested, and the MFI was 4.86.
For B15, the MFI was 7.8.
With B16 the MFI was 5.25.
Molecule B17 has an MFI of 5.49.
For B18, the MFI was 5.14.

What follows are molecules tested against T2, IL1-RAP (antigen of the kinetic …) (assay: kinetics, Table 5B; method and antigen form not stated).
B2 was tested, and the Kd was < 1 pM, the koff was < 1e-07 s⁻¹ and the kon was 169000 M⁻¹ s⁻¹.
In the case of B3, the Kd is reported as 229 pM, the koff is reported as 3.75e-05 s⁻¹ and the kon is reported as 164000 M⁻¹ s⁻¹.
For B4, the Kd was < 1 pM, the koff was < 1e-07 s⁻¹ and the kon was 193000 M⁻¹ s⁻¹.

Target: T1, human interleukin 1 receptor accessory …
Experiment: cell-based or functional assay
Remark: another data set of the same source
In the case of B9, the “% Inhibition at 10 ug/mL of IL-1β-induced NF-κB signaling, HEK-Blue IL-1β cells” value (“% Inhibition at 10 ug/mL” for short) is reported as 59% and the “IC50 of inhibition … HEK-Blue IL-1β cells” value is reported as 7.99 µg/mL.
With B1 the “% Inhibition at 10 ug/mL” value was 92.3% and the “IC50 of inhibition … HEK-Blue IL-1β cells” value was 0.03 µg/mL.
B10 was tested, and the “% Inhibition at 10 ug/mL” value was 50.8% and the “IC50 of inhibition … HEK-Blue IL-1β cells” value was 2.05 µg/mL.
